{"source": "patent US20220204580A1", "about": "(AstraZeneca / MedImmune, published 2022)", "key": {"[1]": {"target": "T1, human calcitonin receptor (human, UniProt P30988 25-474)", "T1 sequence (looked up)": "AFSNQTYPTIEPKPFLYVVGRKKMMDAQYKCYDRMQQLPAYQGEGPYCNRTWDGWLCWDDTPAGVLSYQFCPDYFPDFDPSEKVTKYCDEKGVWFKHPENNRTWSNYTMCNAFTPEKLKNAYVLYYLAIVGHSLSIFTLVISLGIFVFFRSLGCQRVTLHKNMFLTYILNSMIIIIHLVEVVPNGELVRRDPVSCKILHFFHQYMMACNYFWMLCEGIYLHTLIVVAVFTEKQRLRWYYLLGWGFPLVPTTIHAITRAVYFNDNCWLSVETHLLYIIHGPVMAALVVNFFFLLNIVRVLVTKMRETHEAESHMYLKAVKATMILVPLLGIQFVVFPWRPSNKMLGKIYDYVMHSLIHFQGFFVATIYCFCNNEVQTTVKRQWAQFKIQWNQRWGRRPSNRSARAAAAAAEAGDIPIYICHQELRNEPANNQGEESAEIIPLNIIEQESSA", "experiment": "cell-based or functional assay"}, "[2]": {"target": "T2, human amylin receptor (calcitonin receptor co-expressed with receptor activity modifying protein, RAMP3) (human, UniProt P30988 25-474; O60896 24-148)", "T2 sequence (looked up) 1": "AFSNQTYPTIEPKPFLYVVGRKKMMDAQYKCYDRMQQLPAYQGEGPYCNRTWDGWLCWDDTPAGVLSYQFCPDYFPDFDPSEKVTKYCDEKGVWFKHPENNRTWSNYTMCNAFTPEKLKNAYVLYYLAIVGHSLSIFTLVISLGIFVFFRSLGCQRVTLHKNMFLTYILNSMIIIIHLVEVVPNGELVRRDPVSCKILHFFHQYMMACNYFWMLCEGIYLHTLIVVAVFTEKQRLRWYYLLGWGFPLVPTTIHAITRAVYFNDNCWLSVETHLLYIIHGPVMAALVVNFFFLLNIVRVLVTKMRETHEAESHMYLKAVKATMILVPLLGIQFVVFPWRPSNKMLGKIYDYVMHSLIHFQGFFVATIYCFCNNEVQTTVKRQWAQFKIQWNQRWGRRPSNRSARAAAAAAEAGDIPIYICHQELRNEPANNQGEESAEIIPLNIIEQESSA", "T2 sequence (looked up) 2": "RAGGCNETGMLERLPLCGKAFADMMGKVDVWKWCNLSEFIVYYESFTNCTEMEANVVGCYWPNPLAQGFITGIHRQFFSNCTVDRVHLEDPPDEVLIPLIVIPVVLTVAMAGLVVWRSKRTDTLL", "experiment": "cell-based or functional assay"}}, "note": "Numbered stars: 1 amine (or outer) side, 2 acyl side, 3 side chain; on linkers, the order of the positions; unused ones are H or OH. Bridge positions count the residues as written; N and C are the ends. Square brackets hold non-standard residues; d marks the D form. Side chains are listed from the residue outwards. Ends that are not written are not given here. * marks the point of attachment. C20 diacid = O=C(O)CCCCCCCCCCCCCCCCCCC(=O)*; C18 diacid = O=C(O)CCCCCCCCCCCCCCCCC(=O)*; γGlu = O=C(O)[C@H](CCC(=O)[*:2])N[*:1]; αMeF = C[C@](N)(Cc1ccccc1)C(=O)O; Dab = NCC[C@H](N)C(=O)O; Aib = CC(C)(N)C(=O)O", "data": [{"binder": "K([γGlu-γGlu-C20 diacid])CNTATCATQRLANFLVHSS[Aib]NFPAILSPT[Dab]VGSNTY-NH2 (disulfide 2-7; N-terminus assumed; SMILES CC[C@H](C)[C@H](NC(=O)[C@H](C)NC(=O)[C@@H]1CCCN1C(=O)[C@H](Cc1ccccc1)NC(=O)[C@H](CC(N)=O)NC(=O)C(C)(C)NC(=O)[C@H](CO)NC(=O)[C@H](CO)NC(=O)[C@H](Cc1c[nH]cn1)NC(=O)[C@@H](NC(=O)[C@H](CC(C)C)NC(=O)[C@H](Cc1ccccc1)NC(=O)[C@H](CC(N)=O)NC(=O)[C@H](C)NC(=O)[C@H](CC(C)C)NC(=O)[C@H](CCCNC(=N)N)NC(=O)[C@H](CCC(N)=O)NC(=O)[C@@H](NC(=O)[C@H](C)NC(=O)[C@@H]1CSSC[C@H](NC(=O)[C@@H](N)CCCCNC(=O)CC[C@H](NC(=O)CC[C@H](NC(=O)CCCCCCCCCCCCCCCCCCC(=O)O)C(=O)O)C(=O)O)C(=O)N[C@@H](CC(N)=O)C(=O)N[C@@H]([C@@H](C)O)C(=O)N[C@@H](C)C(=O)N[C@@H]([C@@H](C)O)C(=O)N1)[C@@H](C)O)C(C)C)C(=O)N[C@@H](CC(C)C)C(=O)N[C@@H](CO)C(=O)N1CCC[C@H]1C(=O)N[C@H](C(=O)N[C@@H](CCN)C(=O)N[C@H](C(=O)NCC(=O)N[C@@H](CO)C(=O)N[C@@H](CC(N)=O)C(=O)N[C@H](C(=O)N[C@@H](Cc1ccc(O)cc1)C(N)=O)[C@@H](C)O)C(C)C)[C@@H](C)O)", "note": "[Peptide 123 (SEQ ID NO: 123)]", "values": [{"measurement": "EC50 (cAMP production)", "setting": "[1]", "value": 4.79, "unit": "nM"}, {"measurement": "EC50 (cAMP production)", "setting": "[2]", "value": 0.873, "unit": "nM"}, {"measurement": "Ratio (EC50 hCTR / EC50 hAMYR3)", "setting": "[2]", "value": 5}]}, {"binder": "K([γGlu-γGlu-C18 diacid])CNTATCATQRLANFLVHSS[Aib]NFPAILSPTNVGS[Dab]TY-NH2 (disulfide 2-7; N-terminus assumed; SMILES CC[C@H](C)[C@H](NC(=O)[C@H](C)NC(=O)[C@@H]1CCCN1C(=O)[C@H](Cc1ccccc1)NC(=O)[C@H](CC(N)=O)NC(=O)C(C)(C)NC(=O)[C@H](CO)NC(=O)[C@H](CO)NC(=O)[C@H](Cc1c[nH]cn1)NC(=O)[C@@H](NC(=O)[C@H](CC(C)C)NC(=O)[C@H](Cc1ccccc1)NC(=O)[C@H](CC(N)=O)NC(=O)[C@H](C)NC(=O)[C@H](CC(C)C)NC(=O)[C@H](CCCNC(=N)N)NC(=O)[C@H](CCC(N)=O)NC(=O)[C@@H](NC(=O)[C@H](C)NC(=O)[C@@H]1CSSC[C@H](NC(=O)[C@@H](N)CCCCNC(=O)CC[C@H](NC(=O)CC[C@H](NC(=O)CCCCCCCCCCCCCCCCC(=O)O)C(=O)O)C(=O)O)C(=O)N[C@@H](CC(N)=O)C(=O)N[C@@H]([C@@H](C)O)C(=O)N[C@@H](C)C(=O)N[C@@H]([C@@H](C)O)C(=O)N1)[C@@H](C)O)C(C)C)C(=O)N[C@@H](CC(C)C)C(=O)N[C@@H](CO)C(=O)N1CCC[C@H]1C(=O)N[C@H](C(=O)N[C@@H](CC(N)=O)C(=O)N[C@H](C(=O)NCC(=O)N[C@@H](CO)C(=O)N[C@@H](CCN)C(=O)N[C@H](C(=O)N[C@@H](Cc1ccc(O)cc1)C(N)=O)[C@@H](C)O)C(C)C)[C@@H](C)O)", "note": "[Peptide 124 (SEQ ID NO: 124)]", "values": [{"measurement": "EC50 (cAMP production)", "setting": "[1]", "value": 6.63, "unit": "nM"}, {"measurement": "EC50 (cAMP production)", "setting": "[2]", "value": 1.13, "unit": "nM"}, {"measurement": "Ratio (EC50 hCTR / EC50 hAMYR3)", "setting": "[2]", "value": 6}]}, {"binder": "K([γGlu-γGlu-C20 diacid])CNTATCATQRLANFLVHSS[Aib]NFPAILSPTNVGS[Dab]TY-NH2 (disulfide 2-7; N-terminus assumed; SMILES CC[C@H](C)[C@H](NC(=O)[C@H](C)NC(=O)[C@@H]1CCCN1C(=O)[C@H](Cc1ccccc1)NC(=O)[C@H](CC(N)=O)NC(=O)C(C)(C)NC(=O)[C@H](CO)NC(=O)[C@H](CO)NC(=O)[C@H](Cc1c[nH]cn1)NC(=O)[C@@H](NC(=O)[C@H](CC(C)C)NC(=O)[C@H](Cc1ccccc1)NC(=O)[C@H](CC(N)=O)NC(=O)[C@H](C)NC(=O)[C@H](CC(C)C)NC(=O)[C@H](CCCNC(=N)N)NC(=O)[C@H](CCC(N)=O)NC(=O)[C@@H](NC(=O)[C@H](C)NC(=O)[C@@H]1CSSC[C@H](NC(=O)[C@@H](N)CCCCNC(=O)CC[C@H](NC(=O)CC[C@H](NC(=O)CCCCCCCCCCCCCCCCCCC(=O)O)C(=O)O)C(=O)O)C(=O)N[C@@H](CC(N)=O)C(=O)N[C@@H]([C@@H](C)O)C(=O)N[C@@H](C)C(=O)N[C@@H]([C@@H](C)O)C(=O)N1)[C@@H](C)O)C(C)C)C(=O)N[C@@H](CC(C)C)C(=O)N[C@@H](CO)C(=O)N1CCC[C@H]1C(=O)N[C@H](C(=O)N[C@@H](CC(N)=O)C(=O)N[C@H](C(=O)NCC(=O)N[C@@H](CO)C(=O)N[C@@H](CCN)C(=O)N[C@H](C(=O)N[C@@H](Cc1ccc(O)cc1)C(N)=O)[C@@H](C)O)C(C)C)[C@@H](C)O)", "note": "[Peptide 125 (SEQ ID NO: 125)]", "values": [{"measurement": "EC50 (cAMP production)", "setting": "[1]", "value": 10.2, "unit": "nM"}, {"measurement": "EC50 (cAMP production)", "setting": "[2]", "value": 1.2, "unit": "nM"}, {"measurement": "Ratio (EC50 hCTR / EC50 hAMYR3)", "setting": "[2]", "value": 8}]}, {"binder": "K([γGlu-C18 diacid])KCNTATCATQRLANFL[Aib]HSS[Dab]NFGPILPPTNVGSNTY-NH2 (disulfide 3-8; N-terminus assumed; SMILES CC[C@H](C)[C@H](NC(=O)[C@@H]1CCCN1C(=O)CNC(=O)[C@H](Cc1ccccc1)NC(=O)[C@H](CC(N)=O)NC(=O)[C@H](CCN)NC(=O)[C@H](CO)NC(=O)[C@H](CO)NC(=O)[C@H](Cc1c[nH]cn1)NC(=O)C(C)(C)NC(=O)[C@H](CC(C)C)NC(=O)[C@H](Cc1ccccc1)NC(=O)[C@H](CC(N)=O)NC(=O)[C@H](C)NC(=O)[C@H](CC(C)C)NC(=O)[C@H](CCCNC(=N)N)NC(=O)[C@H](CCC(N)=O)NC(=O)[C@@H](NC(=O)[C@H](C)NC(=O)[C@@H]1CSSC[C@H](NC(=O)[C@H](CCCCN)NC(=O)[C@@H](N)CCCCNC(=O)CC[C@H](NC(=O)CCCCCCCCCCCCCCCCC(=O)O)C(=O)O)C(=O)N[C@@H](CC(N)=O)C(=O)N[C@@H]([C@@H](C)O)C(=O)N[C@@H](C)C(=O)N[C@@H]([C@@H](C)O)C(=O)N1)[C@@H](C)O)C(=O)N[C@@H](CC(C)C)C(=O)N1CCC[C@H]1C(=O)N1CCC[C@H]1C(=O)N[C@H](C(=O)N[C@@H](CC(N)=O)C(=O)N[C@H](C(=O)NCC(=O)N[C@@H](CO)C(=O)N[C@@H](CC(N)=O)C(=O)N[C@H](C(=O)N[C@@H](Cc1ccc(O)cc1)C(N)=O)[C@@H](C)O)C(C)C)[C@@H](C)O)", "note": "[Peptide 126 (SEQ ID NO: 126)]", "values": [{"measurement": "EC50 (cAMP production)", "setting": "[1]", "value": 8.45, "unit": "nM"}, {"measurement": "EC50 (cAMP production)", "setting": "[2]", "value": 0.445, "unit": "nM"}, {"measurement": "Ratio (EC50 hCTR / EC50 hAMYR3)", "setting": "[2]", "value": 19}]}, {"binder": "K([γGlu-γGlu-C18 diacid])CNTATCATQRLANFL[Aib]HSSNNFGPILPPTNVGSNTY-NH2 (disulfide 2-7; N-terminus assumed; SMILES CC[C@H](C)[C@H](NC(=O)[C@@H]1CCCN1C(=O)CNC(=O)[C@H](Cc1ccccc1)NC(=O)[C@H](CC(N)=O)NC(=O)[C@H](CC(N)=O)NC(=O)[C@H](CO)NC(=O)[C@H](CO)NC(=O)[C@H](Cc1c[nH]cn1)NC(=O)C(C)(C)NC(=O)[C@H](CC(C)C)NC(=O)[C@H](Cc1ccccc1)NC(=O)[C@H](CC(N)=O)NC(=O)[C@H](C)NC(=O)[C@H](CC(C)C)NC(=O)[C@H](CCCNC(=N)N)NC(=O)[C@H](CCC(N)=O)NC(=O)[C@@H](NC(=O)[C@H](C)NC(=O)[C@@H]1CSSC[C@H](NC(=O)[C@@H](N)CCCCNC(=O)CC[C@H](NC(=O)CC[C@H](NC(=O)CCCCCCCCCCCCCCCCC(=O)O)C(=O)O)C(=O)O)C(=O)N[C@@H](CC(N)=O)C(=O)N[C@@H]([C@@H](C)O)C(=O)N[C@@H](C)C(=O)N[C@@H]([C@@H](C)O)C(=O)N1)[C@@H](C)O)C(=O)N[C@@H](CC(C)C)C(=O)N1CCC[C@H]1C(=O)N1CCC[C@H]1C(=O)N[C@H](C(=O)N[C@@H](CC(N)=O)C(=O)N[C@H](C(=O)NCC(=O)N[C@@H](CO)C(=O)N[C@@H](CC(N)=O)C(=O)N[C@H](C(=O)N[C@@H](Cc1ccc(O)cc1)C(N)=O)[C@@H](C)O)C(C)C)[C@@H](C)O)", "note": "[Peptide 127 (SEQ ID NO: 127)]", "values": [{"measurement": "EC50 (cAMP production)", "setting": "[1]", "value": 7.13, "unit": "nM"}, {"measurement": "EC50 (cAMP production)", "setting": "[2]", "value": 0.364, "unit": "nM"}, {"measurement": "Ratio (EC50 hCTR / EC50 hAMYR3)", "setting": "[2]", "value": 19.6}]}, {"binder": "K([γGlu-C18 diacid])KCNTATCATQRLANFLVHSSNN[αMeF]GPILPPTNVGSNTY-NH2 (disulfide 3-8)", "note": "[Peptide 14 (SEQ ID NO: 14)]", "values": [{"measurement": "EC50 (cAMP production)", "setting": "[1]", "value": 1.35, "unit": "nM"}, {"measurement": "EC50 (cAMP production)", "setting": "[2]", "value": 0.22, "unit": "nM"}, {"measurement": "Ratio (EC50 hCTR / EC50 hAMYR3)", "setting": "[2]", "value": 6}]}]}
